Results reported in patent publication US8383581B2, “Short-chain peptides as parathyroid hormone (PTH) receptor agonist” (Cadila Healthcare Limited, priority 2009, dated 2013).
Where no end group is shown, it is not given here. [ ]: non-standard residue; d: D form. The star is where a group is joined. Bip(2'-Et-4'-OMe) = CCc1cc(OC)ccc1-c1ccc(C[C@H](N)C(=O)O)cc1; Arg(NO2) = N=C(NCCC[C@H](N)C(=O)O)N[N+](=O)[O-]; αMePhe(2,6-F2) = C[C@](N)(Cc1c(F)cccc1F)C(=O)O; αMePhe(2-F) = C[C@](N)(Cc1ccccc1F)C(=O)O; hhPhe = N[C@@H](CCCc1ccccc1)C(=O)O; hArg = N=C(N)NCCCC[C@H](N)C(=O)O; hCit = NC(=O)NCCCC[C@H](N)C(=O)O; Cit = NC(=O)NCCC[C@H](N)C(=O)O; NMeM = CN[C@@H](CCSC)C(=O)O; Decanoyl = CCCCCCCCCC(=O)*; Nle = CCCC[C@H](N)C(=O)O; Orn = NCCC[C@H](N)C(=O)O; Ac5c = NC1(C(=O)O)CCCC1; Ac3c = NC1(C(=O)O)CC1; Aib = CC(C)(N)C(=O)O

T1: rat PTH-1R (rat PTHR endogenously expressed on UMR-106 rat osteosarcoma cells) (rat, UniProt P25961 27-591)
T1 sequence (looked up): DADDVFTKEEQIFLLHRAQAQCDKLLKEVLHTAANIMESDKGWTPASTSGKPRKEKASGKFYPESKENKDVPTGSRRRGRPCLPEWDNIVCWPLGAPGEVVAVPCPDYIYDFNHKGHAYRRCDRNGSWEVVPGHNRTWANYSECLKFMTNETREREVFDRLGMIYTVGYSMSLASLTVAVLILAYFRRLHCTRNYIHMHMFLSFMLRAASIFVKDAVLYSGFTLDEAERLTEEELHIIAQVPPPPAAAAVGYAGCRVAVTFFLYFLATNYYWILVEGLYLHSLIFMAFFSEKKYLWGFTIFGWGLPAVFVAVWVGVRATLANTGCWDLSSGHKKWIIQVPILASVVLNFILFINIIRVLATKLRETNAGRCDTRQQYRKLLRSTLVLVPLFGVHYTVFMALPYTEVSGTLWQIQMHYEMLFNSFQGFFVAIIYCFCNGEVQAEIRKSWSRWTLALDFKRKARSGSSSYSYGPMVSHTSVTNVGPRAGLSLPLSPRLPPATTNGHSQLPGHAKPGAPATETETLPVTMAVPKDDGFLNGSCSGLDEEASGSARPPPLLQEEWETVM


Molecular target: T1, rat PTH-1R (rat PTHR endogenously …)
Assay: cell-based or functional assay

Binder | cAMP released with respect to control, 1 nM peptide, UMR-106 cells | cAMP released with respect to control, 10 nM peptide, UMR-106 cells | cAMP released with respect to control, 100 nM peptide, UMR-106 cells
[Ac3c]V[Aib]EIQ[αMePhe(2,6-F2)][Nle]HQ[hArg]A[Arg(NO2)][Bip(2'-Et-4'-OMe)][hhPhe] [Seq. ID. 694] | 19 percent of control | 64 percent of control | 80 percent of control
[Ac5c]V[Aib]EIQL[Nle]HQ[αMePhe(2,6-F2)]A[Aib][Bip(2'-Et-4'-OMe)][hhPhe] [Seq. ID. 799] | 38 percent of control | 99 percent of control | 106 percent of control
SVSEIQLMHNLGKHLNSMERVEWLRKKLQDVHNF [PTH (1-34)] | 41 percent of control | 97 percent of control | 100 percent of control
[Aib]V[Aib]EIQ[αMePhe(2,6-F2)][Nle]HQ[Aib][Aib][Arg(NO2)][αMePhe(2,6-F2)] [Seq. ID. 598] | 38 percent of control | 79 percent of control | 119 percent of control
[Aib]V[Aib]EIQL[Nle]HQ[hArg]AK[Bip(2'-Et-4'-OMe)] [Seq. ID. 647] | 56 percent of control | 101 percent of control | 126 percent of control
[Ac5c]V[Aib]EIQL[Nle]HQ[Orn]A[Aib][Bip(2'-Et-4'-OMe)][hhPhe] [Seq. ID. 751] | 34 percent of control | 88 percent of control | 116 percent of control
[Ac3c]V[Aib]EIQL[NMeM]HQ[hArg]AK(Decanoyl)[Bip(2'-Et-4'-OMe)] [Seq. ID. 678] | 48 percent of control | 102 percent of control | 112 percent of control
[Ac3c]V[Ac3c]EIQLMHQ[hArg]AK[Bip(2'-Et-4'-OMe)][hhPhe] [Seq. ID. 609] | 39 percent of control | 101 percent of control | 120 percent of control
[Aib]V[Aib]EIQ[αMePhe(2,6-F2)][Nle]HQ[hCit][Aib][Arg(NO2)][αMePhe(2,6-F2)] [Seq. ID. 470] | 36 percent of control | 88 percent of control | 116 percent of control
[Aib]V[Aib]EIQ[αMePhe(2,6-F2)][Nle]HQ[αMePhe(2,6-F2)][Aib][Cit][αMePhe(2,6-F2)] [Seq. ID. 486] | 34 percent of control | 82 percent of control | 104 percent of control
[Ac5c]V[Ac3c]EIQL[Nle]HQ[hArg]AK(Decanoyl)[Bip(2'-Et-4'-OMe)][hhPhe] [Seq. ID. 637] | 36 percent of control | 98 percent of control | 110 percent of control
[Ac5c]V[Aib]EIQ[αMePhe(2,6-F2)][Nle]HQ[αMePhe(2,6-F2)]A[Cit][αMePhe(2-F)] [Seq. ID. 479] | 48 percent of control | 99 percent of control | 112 percent of control
[Aib]V[Aib]EIQ[αMePhe(2-F)][Nle]HQ[αMePhe(2,6-F2)][Aib][αMePhe(2,6-F2)][αMePhe(2,6-F2)] [Seq. ID. 514] | 19 percent of control | 64 percent of control | 80 percent of control
